Reference: patent publication US20230242645A1

Legend:
[1] = target: mouse PD-L1 on 293F cells (WBP315.293F.mPro1.C1) (mouse) (UniProt Q9EP73); experiment: FACS on mouse PD-L1 expressing 293F cells, FITC anti-human IgG
[2] = target: human PD-L1 on CHO-K1 cells (WBP315.CHO-K1.hPro1.C11) (human) (UniProt Q9NZQ7); experiment: FACS on human PD-L1 expressing CHO-K1 cells, FITC anti-human IgG
[3] = target: cynomolgus monkey PD-L1 on 293F cells (WBP315.293F.cPro1.2A) (cynomolgus monkey) (UniProt G7PSE7); experiment: FACS on cynomolgus PD-L1 expressing 293F cells, FITC anti-human IgG
Chain of cynomolgus monkey PD-L1 on 293F cells (WBP315.293F.cPro1.2A) (cynomolgus monkey) (G7PSE7 entry or part of it limits assumed): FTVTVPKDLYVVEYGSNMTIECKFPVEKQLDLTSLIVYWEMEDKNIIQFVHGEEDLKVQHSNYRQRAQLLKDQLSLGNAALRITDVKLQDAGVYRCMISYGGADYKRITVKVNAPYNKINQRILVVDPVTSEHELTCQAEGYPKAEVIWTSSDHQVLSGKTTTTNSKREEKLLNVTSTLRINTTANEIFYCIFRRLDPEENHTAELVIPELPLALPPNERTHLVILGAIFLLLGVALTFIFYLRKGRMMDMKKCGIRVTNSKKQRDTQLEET

[4] = target: human PD-L1 extracellular domain, his tag (W315-hPro1.ECD.his) (human) (UniProt Q9NZQ7); experiment: SPR (Biacore T200), antibody captured on anti-human Fc, antigen as analyte, 25 °C
Chain of human PD-L1 extracellular domain, his tag (W315-hPro1.ECD.his) (human) (Q9NZQ7 19-238): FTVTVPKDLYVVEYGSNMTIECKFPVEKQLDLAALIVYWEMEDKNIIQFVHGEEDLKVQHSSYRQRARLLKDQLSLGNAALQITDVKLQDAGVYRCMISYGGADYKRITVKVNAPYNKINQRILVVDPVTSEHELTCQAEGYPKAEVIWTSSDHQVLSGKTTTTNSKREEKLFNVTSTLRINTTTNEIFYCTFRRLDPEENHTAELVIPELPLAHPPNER

Chain of mouse PD-L1 on 293F cells (WBP315.293F.mPro1.C1) (mouse) (Q9EP73 19-290): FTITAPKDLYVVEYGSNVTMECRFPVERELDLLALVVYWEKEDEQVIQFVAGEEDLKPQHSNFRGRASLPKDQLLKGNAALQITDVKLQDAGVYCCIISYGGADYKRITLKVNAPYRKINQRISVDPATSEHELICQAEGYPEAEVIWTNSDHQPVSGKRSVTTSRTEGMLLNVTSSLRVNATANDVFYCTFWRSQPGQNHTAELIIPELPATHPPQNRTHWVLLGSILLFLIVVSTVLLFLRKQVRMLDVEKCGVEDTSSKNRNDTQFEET
Chain of human PD-L1 on CHO-K1 cells (WBP315.CHO-K1.hPro1.C11) (human) (Q9NZQ7 19-290): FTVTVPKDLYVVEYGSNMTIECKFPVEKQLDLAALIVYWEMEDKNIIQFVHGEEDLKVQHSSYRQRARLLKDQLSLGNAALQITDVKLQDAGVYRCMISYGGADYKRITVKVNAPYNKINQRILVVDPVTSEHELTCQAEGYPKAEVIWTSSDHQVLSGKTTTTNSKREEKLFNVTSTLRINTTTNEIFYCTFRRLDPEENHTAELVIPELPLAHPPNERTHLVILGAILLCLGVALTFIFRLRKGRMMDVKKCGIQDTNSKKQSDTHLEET

Substance: W315-BMK8.uIgG1K(RKNA) (Atezolizumab) (antibody)
- EC50 (read off the curve) [1]: 2 nM
- EC50 (read off the curve) [2]: 0.1 nM
- EC50 (read off the curve) [3]: 2 nM
- Kd [4]: 0.0608 nM
